Seven molecules from patent US20230414780A1 (VECT HORUS, published 2023) can be followed below.

Test [1] has as its target T1, murine TfR expressed by murine neuroblastoma Neuro-2a cells (mouse, UniProt Q62351 1-763). Nature of the test: cell-based or functional assay.
Test [2] deals with T1, murine TfR expressed by murine …. Kind of test: competition with C5-Alexa680 (100 nM) on living Neuro-2a cells, 3 hrs at 37 C, flow cytometry; Ki/app, mean ± SD. As for the experimental part:
The binding of VHH-Oligo and VHH-hFc-Oligo conjugates to mTfR was evaluated using a competition assay on living cells expressing the receptor of interest, namely murine neuroblastoma Neuro-2a cells (N2a). N2a cells were grown in Dulbecco's Modified Eagle Medium (DMEM) GlutaMAX supplemented with 10% v/v FBS in 5% CO₂ at 37° C. Cells were seeded two days before experiments in 96-well plates at a density of 50.000 cells/well. […] Resuspended cells were transferred in a 96-deepwell plate (V-bottom) containing 1% fetal bovine serum (FBS)/0.02% sodium azide in phosphate-buffered saline (PBS) and then centrifuged for 5 min at 2000 rpm at 4° C. After removing the supernatant, 5 mM EDTA in D-PBS and 4% paraformaldehyde (PFA) (v/v 1:1) were added into wells to fix cells for 15 min at room temperature. PFA was removed by centrifugation (5 min, 3000 rpm, 4° C.) and cells were resuspended with 5 mM EDTA in D-PBS. Then the cellular A680-associated fluorescence signal was quantified using an Attune™ NxT flow cytometer (Thermo Fisher Scientific) equipped with Attune™ NxT v3.1.2. Experimental data (experimental triplicates) were fitted with GraphPad Prism® software using a nonlinear fit to determine the apparent Ki inhibition constants.
In general terms: In flow cytometry, cells or beads pass a laser one at a time.

Test [3] concerns the target T2, human transferrin receptor (hTfR) fused to EGFP, on CHO cells (human, UniProt P02786 1-760).
T2 construct: whole, on cells; also called human TfR; CHO-hTfR-EGFP; not shown: EGFP from pEGFP-C1 vector, fused to the N-terminal (intracellular) end of hTfR
Nature of the test: apparent Kd, flow cytometry, CHO cells. How it is done: All experiments were performed in 96 well plates using 2×10⁵ cells/well, at 4° C. with shaking. CHO cell lines stably expressing the hTfR or the mTfR fused to EGFP or CHO WT cells were saturated with PBS/BSA 2% solution during 30 min to avoid non-specific binding, followed by incubation with purified VHHs at concentrations ranging from 50 μM to 5 μM for 1 hr. After one wash in PBS/BSA 2%, cells were incubated for 1 hr with an anti-6His tag antibody (mouse), washed twice with PBS/BSA 2%, and incubated for 45 min with an Alexa647-conjugated anti-mouse secondary antibody. After two last washes in PBS/BSA 2%, cells were fixed by incubation for 15 min with PBS/PFA 2%, washed once with PBS and finally resuspended in PBS and stored at 4° C. Fluorescence levels were assessed using an Attune NxT Flow Cytometer (Thermo Fisher Scientific). […] No labeling of the CHO WT control cells was detected with all the tested VHHs (not shown). The VHH K_{d app} were calculated using GraphPad Prism software (FIG. 11-B; 12-B).

Test [4] deals with T3, mouse transferrin receptor (mTfR) fused to EGFP, on CHO cells (mouse, UniProt Q62351 1-763).
T3 construct: whole, on cells; also called mouse TfR; CHO-mTfR-EGFP; not shown: EGFP
Kind of test: flow cytometry on CHO-mTfR-EGFP cells, 1 hr at 4 C, anti-6His + Alexa647 anti-mouse. How it is done: (§1) (A) CHO-hTfR-EGFP and CHO-mTfR-EGFP cells were incubated 1 hr at 4° C. with various concentrations of VHHs, detected with a mouse anti-6His (1/1000) and an Alexa647-conjugated anti-mouse secondary antibody (1/400). Measurements were performed using flow cytometry. The ratio of fluorescence intensity for each point was normalized with the corresponding EGFP signal (receptor expression) and gave rise to the arbitrary unit. Data are presented as mean±SEM of 3 independent experiments. (B) Characteristics of VHHs: Molecular Weight (Da); Theoretical pI; Apparent Kd on human TfR (nM); Apparent Kd on mouse TfR (nM). Data are presented as mean±SEM of 3 independent experiments. NB: no binding, LB: low binding.
(§2) All experiments were performed in 96 well plates using 2×10⁵ cells/well, at 4° C. with shaking. CHO cell lines stably expressing the hTfR or the mTfR fused to EGFP or CHO WT cells were saturated with PBS/BSA 2% solution during 30 min to avoid non-specific binding, followed by incubation with purified VHHs at concentrations ranging from 50 μM to 5 μM for 1 hr. After one wash in PBS/BSA 2%, cells were incubated for 1 hr with an anti-6His tag antibody (mouse), washed twice with PBS/BSA 2%, and incubated for 45 min with an Alexa647-conjugated anti-mouse secondary antibody. […] Fluorescence levels were assessed using an Attune NxT Flow Cytometer (Thermo Fisher Scientific).

Test [5] concerns the target T2, human transferrin receptor (hTfR) fused …. Kind of test: flow cytometry on CHO-hTfR-EGFP cells, 1 hr at 4 C, anti-6His + Alexa647 anti-mouse; apparent Kd, mean ± SEM of 3 experiments. As for the experimental part:
as §1, §2

Test [6] addresses T3, mouse transferrin receptor (mTfR) fused …. Nature of the test: flow cytometry on CHO-mTfR-EGFP cells, 1 hr at 4 C, anti-6His + Alexa647 anti-mouse; apparent Kd, mean ± SEM of 3 experiments. How it is done: as §1, §2
For test [7] the target is unchanged. Nature of the test: apparent Kd, cell-based assay.
Test [8] has the same target. Nature of the test: flow cytometry, CHO cells. Put shortly:
(§3)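 CHO cells expressing TfR-EGFP fusions, blocked in PBS/BSA 2%, then incubated with increasing VHH concentrations for 1 hr at 4° C. Bound VHH detected via anti-6His antibody and Alexa647 secondary, cells PFA-fixed, read by flow cytometry. Apparent Kd from nonlinear fit.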

Test [9] has as its target T2, human transferrin receptor (hTfR) fused …. Kind of test: apparent Kd, flow cytometry, CHO cells. A digest of the protocol:
as §3
This is another data set of the same source.

Test [10] has as its target T4, rhesus monkey transferrin receptor (rhTfR) fused to EGFP, on CHO cells (rhesus monkey).
T4 construct: whole, on cells; also called rhesus monkey TfR
Kind of test: apparent Kd, flow cytometry, CHO cells. A digest of the protocol:
as §3

Test [11] has as its target T2, human transferrin receptor (hTfR) fused …. Kind of test: competition flow cytometry on CHO-hTfR-EGFP cells, 4 C; VHH competitor in dilution series, phage-H1 tracer at EC80, anti-M13-A647. As for the experimental part:
FIGS. 17A-17D: Competition assays between VHHs and phage-VHHs. CHO-hTfR-EGFP cells were incubated 1 hr at 4° C. with VHHs (competitors) at increasing concentrations. Phage-VHHs (tracers) were then added at EC80 and incubated for 1 more hr. Phage-VHHs were detected with an anti-M13-A647 antibody (1/200). Fluorescence levels were assessed using flow cytometry. The ratio of fluorescence intensity for each point was normalized with the corresponding EGFP signal (receptor expression) and gave rise to the arbitrary unit. Data are presented as mean±SEM of independent experiments.
To evaluate whether selected VHHs compete one with the other for binding to the TfR receptor, competition assays using flow cytometry experiments were performed. All experiments were performed in 96 well plates using 2×10⁵ cells/well, at 4° C. with shaking. CHO cell line expressing the hTfR fused to EGFP was saturated with PBS/BSA 2% solution during 30 min to avoid nonspecific binding, followed by incubation with VHH (competitors) at increasing concentrations for 1 hr. Then, phage-VHHs (tracers) at EC80 were added and incubated 1 hr more. To detect the phage-VHHs, cells were washed twice with PBS/BSA 2% and incubated for 1 hr with an Alexa647-conjugated anti-M13 antibody. […] Fluorescence levels were assessed using an Attune NxT flow cytometer (Thermo Fisher Scientific). […]

Test [12] concerns the target T3, mouse transferrin receptor (mTfR) fused …. Nature of the test: flow cytometry, CHO cells. This is another data set of the same source.
Test [13] shares this target. Kind of test: flow cytometry on CHO-mTfR-EGFP cells, 1 hr at 4 C, Alexa647 anti-mouse; apparent Kd, mean ± SEM of 3 experiments. How it is done:
as §1, with “FIGS. 13A-13B: Apparent Kd determination of 13C3-HC-VHH fusions on hTfR- and mTfR-expressing CHO cell lines. (A)” for “(A)”, “13C3 fusions and” for “VHHs,”, “with” for “with a mouse anti-6His (1/1000) and”, “anti-mouse” for “anti-mouse secondary”, “13C3 fusions:” for “VHHs:”, “(Da);” for “(Da); Theoretical pI;”
All experiments were performed in 96 well plates using 2×10⁵ cells/well, at 4° C. with shaking. CHO cell lines stably expressing the hTfR or the mTfR fused to EGFP or CHO WT cells were saturated with PBS/BSA 2% solution during 30 min to avoid non-specific binding, followed by incubation with purified VHHs at concentrations ranging from 50 μM to 5 μM for 1 hr. After one wash in PBS/BSA 2%, cells were incubated for 1 hr with an anti-6His tag antibody (mouse), washed twice with PBS/BSA 2%, and incubated for 45 min with an Alexa647-conjugated anti-mouse secondary antibody. After two last washes in PBS/BSA 2%, cells were fixed by incubation for 15 min with PBS/PFA 2%, washed once with PBS and finally resuspended in PBS and stored at 4° C. Fluorescence levels were assessed using an Attune NxT Flow Cytometer (Thermo Fisher Scientific).

Residue numbers refer to the chain shown, from its start.

T3 sequence (Q62351 whole entry, the tested form may be a part): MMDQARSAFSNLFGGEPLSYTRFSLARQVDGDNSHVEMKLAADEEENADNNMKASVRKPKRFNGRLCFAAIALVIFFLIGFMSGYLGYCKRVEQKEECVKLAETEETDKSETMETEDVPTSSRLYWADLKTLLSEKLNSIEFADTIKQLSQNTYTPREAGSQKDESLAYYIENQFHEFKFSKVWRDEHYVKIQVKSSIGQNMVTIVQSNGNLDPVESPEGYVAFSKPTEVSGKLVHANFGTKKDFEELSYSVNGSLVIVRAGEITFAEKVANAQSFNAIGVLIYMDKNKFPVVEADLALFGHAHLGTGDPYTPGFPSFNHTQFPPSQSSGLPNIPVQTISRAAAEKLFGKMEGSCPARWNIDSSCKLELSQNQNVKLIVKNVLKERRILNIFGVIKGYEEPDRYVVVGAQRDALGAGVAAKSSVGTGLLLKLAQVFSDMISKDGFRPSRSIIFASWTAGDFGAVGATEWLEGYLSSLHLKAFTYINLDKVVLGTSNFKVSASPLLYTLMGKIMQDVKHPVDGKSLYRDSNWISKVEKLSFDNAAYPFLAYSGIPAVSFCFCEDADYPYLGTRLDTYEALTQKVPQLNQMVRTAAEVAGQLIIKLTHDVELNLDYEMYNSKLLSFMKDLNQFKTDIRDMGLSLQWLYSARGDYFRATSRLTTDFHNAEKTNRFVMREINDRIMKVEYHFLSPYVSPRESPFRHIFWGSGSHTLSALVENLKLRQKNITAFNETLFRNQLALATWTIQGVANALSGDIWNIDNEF
T2 sequence (P02786 whole entry, the tested form may be a part): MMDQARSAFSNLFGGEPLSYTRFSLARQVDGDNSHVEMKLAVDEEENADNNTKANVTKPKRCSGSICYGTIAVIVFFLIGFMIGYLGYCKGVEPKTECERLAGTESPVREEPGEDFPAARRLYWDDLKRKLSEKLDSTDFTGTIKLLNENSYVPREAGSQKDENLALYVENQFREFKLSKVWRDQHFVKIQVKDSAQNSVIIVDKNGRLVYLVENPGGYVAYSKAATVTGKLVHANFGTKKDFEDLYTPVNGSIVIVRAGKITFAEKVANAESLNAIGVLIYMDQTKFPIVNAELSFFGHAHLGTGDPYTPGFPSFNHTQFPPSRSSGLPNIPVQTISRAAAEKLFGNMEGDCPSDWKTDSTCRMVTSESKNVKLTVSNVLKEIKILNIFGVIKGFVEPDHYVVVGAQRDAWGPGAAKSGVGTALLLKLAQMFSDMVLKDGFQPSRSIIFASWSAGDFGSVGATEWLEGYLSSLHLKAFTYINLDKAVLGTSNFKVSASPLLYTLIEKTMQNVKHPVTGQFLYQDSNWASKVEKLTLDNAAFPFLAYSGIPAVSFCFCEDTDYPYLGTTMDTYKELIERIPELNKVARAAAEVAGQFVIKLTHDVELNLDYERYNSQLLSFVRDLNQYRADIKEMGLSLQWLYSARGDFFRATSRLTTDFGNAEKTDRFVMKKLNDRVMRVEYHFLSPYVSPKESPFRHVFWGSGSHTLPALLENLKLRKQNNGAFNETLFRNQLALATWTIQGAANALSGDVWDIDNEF
T1 sequence (Q62351 whole entry): as the sequence (Q62351 whole entry, the tested form may be a part) above

B1: C5-siSOD1m-5'VP (VHH, not shown: small tags and cut ends)
VHH: EVQLVESGGGVVQPGGSLKLSCVASGTDFSINFIRWYRQAPGKQREFVAGFTATGNTNYADSMKGRFTISRDNTKNAVYLQIDSLKPEDTAVYYCYMLDKWGQGTQVTVSS
modifications: siSOD1m-5'VP siRNA duplex linked by a stable linker (azide/alkyne click) to the VHH
notes: also called VHH-siSOD1m-5'VP wherein VHH is C5
For the molecule B1, the “IC50 of mSOD1 mRNA downregulation, free uptake on Neuro-2a cells” value in [1] was 7.4 nM. The molecule also came in with a Ki in test [2] of 164 nM.

B2: VHH A7 (C5^V7) (VHH)
VHH: B1 VHH with L98A
B2: the Kd in test [3] stood at 255 nM. Also, the binding result in [4] is listed as “binds”.

B3: VHH A6 (C5^V6) (VHH)
VHH: B1 VHH with M97A
Take B3: the Kd in test [3] is 3 to 4 nM; in test [5], 3.4 nM; in test [6], 182 nM.

B4: B8 h1-NT(8-13) (VHH)
VHH: EVQLVESGGGVVQPGGSLRLSCAASGEIFSINFMRWYRQAPGKGLEWVAGFTRDGSTNYPDSVKGRFTISRDNAKNTVYLQMNSLRPEDTAVYYCYMLDTWGQGTQVTVSS
B4: the Kd in test [7] amounted to 2.8 nM.

B5: B8V1-NT(8-13) (VHH)
VHH: B4 VHH with S25D, G44Q, L45R, V63A, M82I, N83D, R86K
As for B5, the Kd in test [7] turned out to be 8.3 nM.

B6: E8 (VHH)
VHH: EVQLVESGGRLVQAGGSLRLSCTASGLAFSTHTMHWFRQAPGKEREFVGAIRWSDEDTEYADSVKGRFTISRDNAKSTVYLQMNNLKPEDTAVYYCAAARGVGTSGHMKYWGQGTQVTVSS
Take B6: the binding result in test [8] is reported as “no binding”. The results for the Kd in test [9] and in [10] were 3.4 nM and 2.1 nM, respectively. The “IC50 (read off the curve)” value in test [11] was roughly 40 nM.

B7: 13C3-HC-VHH A1 (antibody)
heavy: QVQLQQSGPELVRPGVSVKISCKGSGYTFTDYAMHWVKQSHAKSLEWIGVISTKYGKTNYNQKFKGKATMTVDKSSSTAYMELARLTSEDSAIYYCARGDDGYSWGQGTSVTVSSAKTTPPSVYPLAPGSAAQTNSMVTLGCLVKGYFPEPVTVTWNSGSLSSGVHTFPAVLQSDLYTLSSSVTVPSSTWPSETVTCNVAHPASSTKVDKKIVPRDCGCKPCICTVPEVSSVFIFPPKPKDVLTITLTPKVTCVVVDISKDDPEVQFSWFVDDVEVHTAQTQPREEQFNSTFRSVSELPIMHQDWLNGKEFKCRVNSAAFPAPIEKTISKTKGRPKAPQVYTIPPPKEQMAKDKVSLTCMITDFFPEDITVEWQWNGQPAENYKNTQPIMDTDGSYFVYSKLNVQKSNWEAGNTFTCSVLHEGLHNHHTEKSLSHSPGGGGGMAEVQLVESGGGVVQPGGSLKLSCVASGADFSINFIRWYRQAPGKQREFVAGFTATGNTNYADSMKGRFTISRDNTKNAVYLQIDSLKPEDTAVYYCYMLDKWGQGTQVTVSSAAA
light: DVVMTQTPLSLPVSLGDQASISCRSGQSLVHSNGNTYLHWYLQKPGQSPKLLIYTVSNRFSGVPDRFSGSGSGSDFTLKISRVEAEDLGVYFCSQNTFVPWTFGGGTKLEIKRADAAPTVSIFPPSSEQLTSGGASVVCFLNNFYPKDINVKWKIDGSERQNGVLNSWTDQDSKDSTYSMSSTLTLTKDEYERHNSYTCEATHKTSTSPIVKSFNRNEC
Regarding B7, the “Bmax, fold lower than 13C3-HC-VHH A” value in [12] stood at 2 fold. For the same molecule, in [13], the Kd amounted to 9.4 nM.
